We go through four molecules from patent US20230330222A1 (ASCENDO BIOTECHNOLOGY, published 2023).

B1: recombinant TREML1 ECD (human TREM-like transcript-1 extracellular domain) (ligand)
chain: QGIVGSLPEVLQAPVGSSILVQCHYRLQDVKAQKVWCRFLPEGCQPLVSSAVDRRAPAGRRTFLTDLGGGLLQVEMVTLQEEDAGEYGCMVDGARGPQILHRVSLNILPPEEEEETHKIGSLAENAFSDPAGSANPLEPSQDEKSIP
notes: Expressed in E. coli from pET30-TREML1 and purified on Ni-NTA; also called hTREML1; not shown: N-terminal polyhistidine tag from pET30
B2: recombinant human MD2 protein (receptor, UniProt Q9Y6Y9 19-160, looked up)
chain: QKQYWVCNSSDASISYTYCDKMQYPISINVNPCIELKRSKGLLHIFYIPRRDLKQLYFNLYITVNTMNLPKRKEVICRGSDDDYSFCRALKGETVNTTISFSFKGIKFSKGKYKCVVEAISGSPEEMLFCLEFVILHQPNSN
notes: also called hMD2; LY96

In assay [1] the target is T1, recombinant CD14 (human, UniProt P08571 20-352, limits assumed).
T1 construct: also called hCD14
T1 sequence (looked up): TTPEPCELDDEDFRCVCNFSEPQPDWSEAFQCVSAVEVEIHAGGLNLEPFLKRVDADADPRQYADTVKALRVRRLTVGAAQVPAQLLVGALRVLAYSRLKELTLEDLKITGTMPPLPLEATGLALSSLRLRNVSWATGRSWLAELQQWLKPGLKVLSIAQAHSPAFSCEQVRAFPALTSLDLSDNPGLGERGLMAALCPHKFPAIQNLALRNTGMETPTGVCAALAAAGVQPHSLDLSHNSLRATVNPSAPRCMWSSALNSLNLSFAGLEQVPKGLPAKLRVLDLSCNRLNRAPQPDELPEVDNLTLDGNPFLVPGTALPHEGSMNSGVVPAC
Kind of assay: solid phase binding assay, CD14 coated at 5 ug/ml. As for the experimental part: (§1) To identify potential binding partners of TREML1 ECD, we used solid phase binding assay to assess interactions between TREML1 ECD and candidate proteins. Briefly, various candidate proteins and BSA (as a negative control) were coated on a 96-well plate and TREML1 ECD at various concentrations were added to the wells. After binding and washing, an anti-TREML1 antibody conjugated with horse radish peroxidase (HRP) was added to each well. After washing, HRP substrate, TMB (3,3′,5,5′-tetramethylbenzidine), was added. After reaction, absorbance at 450 nm was measured to assess TREML1 binding. An exemplary set of results is shown in FIG. 2, in which recombinant TREML1 ECD binds MD2 and TLR4 in a concentration-dependent manner.
(§2) To investigate the protein-protein interactions. Recombinant TLR4 (5 ug/ml in PBS), MD2 (5 ug/ml in PBS), CD14 (5 ug/ml in PBS), and BSA (negative control) proteins were plated separately on 96-well plates and incubated overnight at 4 degrees Celsius. The blocking buffer (2% BSA in PBS) was added to avoid the nonspecific binding for 2 hr at room temperature. A serial diluted TREML1 ECD (2.5 ug/ml to 156 ng/ml, 2-fold dilutions) solutions were added and allowed to incubate at room temperature for 2 hr. Then, anti-TREML1 antibody (1 ug/ml in PBS) was added for 1 hr. […] Absorbance at OD450/540 nm was measured with a microplate reader.

A further assay has as its target BSA (negative control) (UniProt P02769 25-607). The assay can be described thus: solid phase binding assay, BSA coated as negative control. As for the experimental part: as §1, §2
Assay [2] addresses B1. The assay can be described thus: solid phase binding assay, MD2 coated. As for the experimental part: as §1, §2
The target in assay [3] is T2, recombinant mouse MD2 protein (mouse, UniProt Q9JHF9 19-160).
T2 construct: also called mMD2
T2 sequence (looked up): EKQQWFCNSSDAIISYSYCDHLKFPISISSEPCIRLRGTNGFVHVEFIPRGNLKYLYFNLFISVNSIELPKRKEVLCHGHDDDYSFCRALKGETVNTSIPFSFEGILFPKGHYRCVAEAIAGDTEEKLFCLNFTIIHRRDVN
Kind of assay: solid phase binding assay, mTREML1 stalk coated, anti-His-HRP detection. As for the experimental part: (§3) For TREML1 or mTREML1 stalk binding to human or mouse MD2 protein, TREML1 stalk or mTREML1 stalk (5 ug/ml in PBS) was coated separately on a 96-well plate. Recombinant hTLR4, hMD2, hCD14, or mMD2 was each serially diluted and added to the plates. Anti-His tag antibody-HRP was used as a detection antibody to detect the protein binding.

Assay [4] has as its target T3, recombinant TLR4 (toll-like receptor 4) (human, UniProt O00206 24-631, limits assumed).
T3 construct: also called hTLR4
Kind of assay: solid phase binding assay, TREML1 stalk coated at 5 ug/ml, anti-His-HRP detection. As for the experimental part:
as §3

The target of assay [5] is T1, recombinant CD14. The assay is described as above. As for the experimental part:
as §3

For assay [6], the target named is B2. Kind of assay: solid phase binding assay, TREML1 stalk coated, anti-His-HRP detection. As for the experimental part:
as §3

T3 sequence (O00206 24-631 limits assumed): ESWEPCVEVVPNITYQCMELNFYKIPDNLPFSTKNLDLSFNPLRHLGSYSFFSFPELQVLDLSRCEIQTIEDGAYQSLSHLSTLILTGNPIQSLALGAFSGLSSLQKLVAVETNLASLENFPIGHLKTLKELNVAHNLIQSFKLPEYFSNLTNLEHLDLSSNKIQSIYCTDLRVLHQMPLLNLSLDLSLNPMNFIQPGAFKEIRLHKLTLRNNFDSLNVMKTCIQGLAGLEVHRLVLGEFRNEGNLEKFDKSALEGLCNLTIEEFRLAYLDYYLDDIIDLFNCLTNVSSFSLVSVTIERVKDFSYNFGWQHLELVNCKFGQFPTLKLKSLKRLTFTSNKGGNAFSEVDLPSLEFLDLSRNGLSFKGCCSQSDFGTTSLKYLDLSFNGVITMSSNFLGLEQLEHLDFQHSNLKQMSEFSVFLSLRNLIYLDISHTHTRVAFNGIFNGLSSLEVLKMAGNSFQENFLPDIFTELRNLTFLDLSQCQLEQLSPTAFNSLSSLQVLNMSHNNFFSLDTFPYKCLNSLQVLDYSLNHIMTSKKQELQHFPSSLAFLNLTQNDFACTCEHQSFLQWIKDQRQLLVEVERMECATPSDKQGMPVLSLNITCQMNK
Sequence of BSA (negative control) (P02769 25-607 limits assumed): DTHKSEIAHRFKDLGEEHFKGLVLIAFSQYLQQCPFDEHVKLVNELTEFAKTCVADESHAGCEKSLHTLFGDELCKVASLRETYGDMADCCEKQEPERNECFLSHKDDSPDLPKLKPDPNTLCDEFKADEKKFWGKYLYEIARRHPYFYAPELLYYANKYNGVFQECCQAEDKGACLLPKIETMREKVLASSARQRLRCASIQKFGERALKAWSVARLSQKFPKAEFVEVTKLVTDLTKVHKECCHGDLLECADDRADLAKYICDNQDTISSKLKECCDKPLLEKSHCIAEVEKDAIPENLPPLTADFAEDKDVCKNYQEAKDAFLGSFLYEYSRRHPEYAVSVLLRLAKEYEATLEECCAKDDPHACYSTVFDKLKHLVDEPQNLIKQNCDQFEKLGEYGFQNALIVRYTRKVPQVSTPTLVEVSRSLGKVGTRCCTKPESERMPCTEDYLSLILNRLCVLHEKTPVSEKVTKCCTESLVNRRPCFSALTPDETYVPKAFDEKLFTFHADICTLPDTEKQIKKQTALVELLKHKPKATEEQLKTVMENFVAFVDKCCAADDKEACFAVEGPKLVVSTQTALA

In the case of B1, the binding result in the assay with recombinant CD14 [1] and with BSA (negative control) was “no binding (tested: 2.5 ug/ml to 156 ng/ml TREML1 ECD)” in each case. For the molecule B2, the binding result in assay [2] is on record as “binds”.

As to EGEEAEDEKETYRIGTGSLLEDPSLDPSASAGPHEFRRRENSIP (also called mouse TREML1 stalk) [mTREML1 stalk polypeptide (mouse)], in assay [3], the binding result is “binds”. As for ILPPEEEEETHKIGSLAENAFSDPAGSANPLEPSQDEKSIP [TREML1 stalk polypeptide (human)], the binding result in assay [4] is reported as “no binding”; with recombinant CD14 [5] it was “no binding”; in assay [6], “binds”.
